Read-outs that look alike come from different tables or passages of the source.
Tests used:
[1] = biological target: SHARP (SPEN) (Mus musculus) (UniProt Q62504); details: UV crosslinked RIP-qPCR
[2] = system: SAF-A (hnRNPU) (Mus musculus); details: RAP-MS, UV crosslinked, denaturing
[3] = system: hnRNPM (Mus musculus); details: RAP-MS, UV crosslinked, denaturing
[4] = system: CELF1 (Mus musculus); details: UV crosslinked RIP; RAP-MS
[5] = system: RALY; details: UV crosslinked RIP; RAP-MS
[6] = system: RBM15 (Mus musculus); details: UV crosslinked RIP; RAP-MS
[7] = system: MYEF2 (Mus musculus); details: UV crosslinked RIP; RAP-MS
[8] = system: hnRNPC; details: UV crosslinked RIP; RAP-MS
[9] = system: ΔRS-LBR deletion of amino acids 71-90 (Homo sapiens); details: FLAG IP RT-qPCR, UV crosslinked
[10] = system: PTBP1 (Mus musculus); details: UV crosslinked RIP; CLIP site 10859-11344

Sequence of UniProt Q62504 (Q62504 whole entry): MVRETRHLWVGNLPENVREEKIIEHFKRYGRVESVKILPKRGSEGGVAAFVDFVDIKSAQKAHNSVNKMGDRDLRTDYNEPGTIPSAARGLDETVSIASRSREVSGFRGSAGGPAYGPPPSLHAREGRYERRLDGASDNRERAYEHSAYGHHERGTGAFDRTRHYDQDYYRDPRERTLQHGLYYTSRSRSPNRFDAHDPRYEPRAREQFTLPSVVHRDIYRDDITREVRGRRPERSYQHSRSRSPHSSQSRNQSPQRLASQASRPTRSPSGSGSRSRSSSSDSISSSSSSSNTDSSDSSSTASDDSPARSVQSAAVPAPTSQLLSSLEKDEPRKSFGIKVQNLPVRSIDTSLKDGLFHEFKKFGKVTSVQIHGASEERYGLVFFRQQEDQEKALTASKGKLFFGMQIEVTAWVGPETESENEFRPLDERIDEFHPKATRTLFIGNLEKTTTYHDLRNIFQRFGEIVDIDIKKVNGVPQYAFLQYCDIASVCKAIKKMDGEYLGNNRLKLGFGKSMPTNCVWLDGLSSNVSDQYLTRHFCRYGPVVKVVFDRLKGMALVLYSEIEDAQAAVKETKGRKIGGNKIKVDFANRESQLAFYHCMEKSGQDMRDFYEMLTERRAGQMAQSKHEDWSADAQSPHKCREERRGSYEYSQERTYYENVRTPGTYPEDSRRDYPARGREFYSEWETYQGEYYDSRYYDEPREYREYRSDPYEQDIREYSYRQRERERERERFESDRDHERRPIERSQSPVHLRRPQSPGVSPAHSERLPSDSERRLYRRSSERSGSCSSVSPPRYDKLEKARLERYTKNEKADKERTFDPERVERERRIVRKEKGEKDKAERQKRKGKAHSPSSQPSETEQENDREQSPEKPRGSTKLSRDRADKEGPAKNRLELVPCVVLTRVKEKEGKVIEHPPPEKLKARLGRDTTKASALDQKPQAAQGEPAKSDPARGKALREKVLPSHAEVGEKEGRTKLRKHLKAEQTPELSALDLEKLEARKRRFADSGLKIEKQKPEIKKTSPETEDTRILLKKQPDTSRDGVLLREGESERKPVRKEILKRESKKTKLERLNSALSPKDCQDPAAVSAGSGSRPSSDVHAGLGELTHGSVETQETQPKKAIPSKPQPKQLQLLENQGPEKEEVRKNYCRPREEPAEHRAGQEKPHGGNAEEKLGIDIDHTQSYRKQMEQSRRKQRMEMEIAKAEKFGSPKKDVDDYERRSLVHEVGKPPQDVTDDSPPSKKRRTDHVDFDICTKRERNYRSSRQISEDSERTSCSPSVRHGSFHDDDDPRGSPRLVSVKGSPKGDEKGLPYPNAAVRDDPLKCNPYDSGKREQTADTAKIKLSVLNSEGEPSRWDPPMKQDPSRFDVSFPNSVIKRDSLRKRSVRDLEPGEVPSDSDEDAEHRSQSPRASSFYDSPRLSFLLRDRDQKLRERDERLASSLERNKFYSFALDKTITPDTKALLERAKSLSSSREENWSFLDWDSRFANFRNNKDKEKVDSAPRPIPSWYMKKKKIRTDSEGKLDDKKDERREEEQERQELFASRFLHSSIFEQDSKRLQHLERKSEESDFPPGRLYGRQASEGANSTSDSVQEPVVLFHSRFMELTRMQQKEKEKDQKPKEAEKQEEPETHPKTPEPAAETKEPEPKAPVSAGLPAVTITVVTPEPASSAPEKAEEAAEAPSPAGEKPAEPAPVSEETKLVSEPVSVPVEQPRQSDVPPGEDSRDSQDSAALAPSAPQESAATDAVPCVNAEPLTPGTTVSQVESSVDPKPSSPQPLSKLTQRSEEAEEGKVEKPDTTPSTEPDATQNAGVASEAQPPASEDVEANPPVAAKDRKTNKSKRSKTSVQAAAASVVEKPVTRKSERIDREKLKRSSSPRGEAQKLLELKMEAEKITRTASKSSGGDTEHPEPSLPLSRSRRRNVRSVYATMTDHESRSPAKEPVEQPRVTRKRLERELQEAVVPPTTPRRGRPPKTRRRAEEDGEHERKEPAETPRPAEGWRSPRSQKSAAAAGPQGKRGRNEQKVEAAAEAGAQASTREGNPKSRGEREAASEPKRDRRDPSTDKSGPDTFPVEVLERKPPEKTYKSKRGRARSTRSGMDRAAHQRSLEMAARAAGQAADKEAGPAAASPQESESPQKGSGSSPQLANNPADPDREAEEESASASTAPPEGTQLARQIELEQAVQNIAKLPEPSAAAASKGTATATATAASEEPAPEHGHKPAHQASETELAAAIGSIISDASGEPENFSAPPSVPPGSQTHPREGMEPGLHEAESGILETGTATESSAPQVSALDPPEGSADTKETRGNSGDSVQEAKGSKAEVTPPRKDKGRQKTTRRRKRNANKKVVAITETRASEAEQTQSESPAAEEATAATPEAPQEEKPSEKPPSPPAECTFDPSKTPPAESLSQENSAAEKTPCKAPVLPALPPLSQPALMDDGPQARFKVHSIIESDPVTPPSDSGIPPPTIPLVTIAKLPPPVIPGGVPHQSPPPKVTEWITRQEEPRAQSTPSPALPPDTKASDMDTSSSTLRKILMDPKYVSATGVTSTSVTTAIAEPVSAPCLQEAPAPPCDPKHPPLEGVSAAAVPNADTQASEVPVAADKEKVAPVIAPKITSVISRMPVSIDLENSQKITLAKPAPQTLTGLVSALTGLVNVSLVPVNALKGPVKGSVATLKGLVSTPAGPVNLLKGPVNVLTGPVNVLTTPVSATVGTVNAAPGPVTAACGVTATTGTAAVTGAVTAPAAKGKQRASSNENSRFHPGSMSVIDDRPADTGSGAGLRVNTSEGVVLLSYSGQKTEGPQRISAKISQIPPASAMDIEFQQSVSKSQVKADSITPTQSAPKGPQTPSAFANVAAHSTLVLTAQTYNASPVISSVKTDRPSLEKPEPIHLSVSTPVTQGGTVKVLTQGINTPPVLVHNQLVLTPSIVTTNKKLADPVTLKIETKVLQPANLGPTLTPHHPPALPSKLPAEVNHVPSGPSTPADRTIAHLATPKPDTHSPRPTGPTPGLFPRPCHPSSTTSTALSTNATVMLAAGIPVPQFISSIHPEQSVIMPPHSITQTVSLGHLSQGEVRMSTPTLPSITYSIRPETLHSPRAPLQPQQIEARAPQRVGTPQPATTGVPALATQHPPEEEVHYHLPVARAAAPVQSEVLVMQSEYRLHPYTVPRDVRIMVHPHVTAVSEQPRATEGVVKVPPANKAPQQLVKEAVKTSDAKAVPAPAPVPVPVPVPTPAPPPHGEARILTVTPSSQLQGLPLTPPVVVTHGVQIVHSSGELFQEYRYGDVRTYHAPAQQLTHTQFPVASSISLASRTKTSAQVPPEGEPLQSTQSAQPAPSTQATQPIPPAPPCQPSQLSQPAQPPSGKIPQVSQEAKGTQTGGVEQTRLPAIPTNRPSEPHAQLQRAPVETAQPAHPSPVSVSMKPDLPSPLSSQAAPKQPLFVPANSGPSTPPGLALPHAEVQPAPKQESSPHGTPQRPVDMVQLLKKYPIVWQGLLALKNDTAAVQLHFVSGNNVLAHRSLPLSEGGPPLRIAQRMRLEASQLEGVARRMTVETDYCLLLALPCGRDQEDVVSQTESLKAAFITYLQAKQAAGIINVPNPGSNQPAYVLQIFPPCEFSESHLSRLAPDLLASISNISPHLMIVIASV

| Substance | binding signal (fold over IgG) ([1]; RA-treated female ES cells, CLIP site 317-1056) | binding signal (SILAC ratio Xist/U1) [2] | binding signal (SILAC ratio Xist/U1) [3] | binding signal (fold over input) [4] | binding signal (fold over input) [5] | binding signal (fold over input) [6] | binding signal (fold over input) [7] | binding signal (fold over input) [8] | binding signal (% reduced binding) [9] | binding signal (fold over input) [10] | binding signal (fold over IgG) ([1]; female ES cells) |
| --- | --- | --- | --- | --- | --- | --- | --- | --- | --- | --- | --- |
| Xist lncRNA | > 45 | > 3 | > 3 | > 4 | > 4 | > 4 | > 4 | > 4 | 97 | > 4 |  |
| 45S pre-rRNA |  |  |  |  |  |  |  |  |  |  | < 1 |
| Neat1 lncRNA |  |  |  |  |  |  |  |  |  |  | < 1 |
